In the supplement of paper PMC9170038:

Test system: MS2 coat protein
Test: apparent KD of MS2 coat protein; designed switch direction (-1 OFF switch, 1 ON switch): -1; higher = weaker reporter binding
How it was run: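 Apparent KD, taken as the median over clusters for each design, was obtained by curve-fitting normalised cluster fluorescence. Designed RNA switches had been transcribed on Illumina chips by stalled E. coli RNA polymerase and titrated with SNAP-549-labelled MS2 coat protein, doubling from 0.7 or 1.5 nM to 3 µM.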

[1] = Eterna round: R95, input ligand: FMN 200 uM
[2] = Eterna round: R95, input ligand: microRNA oligo, concentration not stated
[3] = Eterna round: R95, input ligand: none
[4] = input ligand: microRNA oligo, concentration not stated

Sequence	apparent KD of MS2 coat protein [1]	apparent KD of MS2 coat protein [2]	apparent KD of MS2 coat protein [3]	apparent KD of MS2 coat protein (input ligand: FMN 200 uM)	apparent KD of MS2 coat protein (input ligand: none)	apparent KD of MS2 coat protein [4]
AAGAGUGCAGGAUAUACUUGUUAGGACGGUUGGAUGAAUGGACAUGAGGAUCACCCAUGUAGAAGGGCAGAGAG [JR_Exclu2_Sub051] (puzzle: Exclusion 2)	0.0339 µM	0.0302 µM	0.0413 µM	–	–	–
UAACAACAUGAGGAUCACCCAUGUGAGGAUAUGUACGUUCGUUGGCGAACCUUGUUCCGCAGAAGGCAUGUGGG [Eternabot (L1) Solution 28] (Eterna round: R97, puzzle: Exclusion 1)	–	–	–	0.232 µM	0.0386 µM	–
AGUGGCCGAGGAUAUACAUGAGGAUCACCCAUGUUUUAUGUUGAAACGUUAGCGGCCUGUAGAAGGCGGACCUU [Eternabot (L2) Solution 76] (Eterna round: R97, puzzle: Exclusion 3)	–	–	–	0.0175 µM	0.0193 µM	–
AGUAACAGAGGAUAUACUGUUUUAUGUGUUUGUUGUUUUAAACAUGAGGAUCACCCAUGUAGAAGGCUGAAUAA [JMF 87] (puzzle: Exclusion 2)	–	0.0188 µM	–	–	–	–
CGAUAAAAGUGAGGAUAUGAGGAGAGAGAGAGAUCAGAAGGCACACAUGAGGAUCACCCAUGUGAGUUCUCGAAAUUAAAUAUU [Prohibition 49 - Jieux - Exclusion NG 1] (Eterna round: R96, puzzle: Exclusion NG 1)	–	–	–	0.0152 µM	0.018 µM	0.0114 µM
ACAUGUCAUUGAGGAUAUUGCACACAUGAGGAUCACCCAUGUAUACGGAUGCUCUUCCGUGAGUUCGAGAAGGCGAUGUACAUU [Ex NG2 #90] (Eterna round: R96, puzzle: Exclusion NG 2)	–	–	–	0.0713 µM	0.0607 µM	0.0386 µM
CUCCUCGUGGCGCCUAAACACAUGAGGAUCACCCAUGUACAGGCUUUUUGCCGUCUUAUAAUAAAACCGAGGAGACG [Ataesarxe] (puzzle: Sensor v3, turn-off variant 1)	0.0166 µM	0.0188 µM	0.0166 µM	–	–	–
UCCAGGCGAGGAUAUACAAAGAUUUUUUCGUUUUGUCUCGAACAUGAGGAUCACCCAUGUAGAAGGUGCUUCUG [JR_Ex2_Sub012] (Eterna round: R97, puzzle: Exclusion 2)	–	–	–	0.149 µM	0.115 µM	–
AGAAAGGAAGGAUAUACAAGAAAGCUGGGCAACGUCUCAGAACAUGAGGAUCACCCAUGUAGAAGGUCCAGGAA [Bienqura] (puzzle: Exclusion 2)	–	0.0226 µM	–	–	–	–
GCCGUACAUGAGGAUCACCCAUGUCAGGAUAUUUAGCACUCGGAGUUCCCGAGAGGUCAAAGAAGGGACAUUGC [EX1 C.17] (Eterna round: R97, puzzle: Exclusion 1)	–	–	–	0.0216 µM	0.0174 µM	–
ACAAGCUUUUUGCUCGUCGAGUAGAAACGUGAGAGCGAGACAUGAGGAUCACCCAUGUAAAGGCAGUAGGUGGAGAU [JR_SV3TOV2_Sub025] (puzzle: Sensor v3, turn-off variant 2)	0.0332 µM	0.0432 µM	0.0339 µM	–	–	–
AAGAAACAUGAGGAUCACCCAUGUGAGGAUAUGAGCAAGAAAAGAAAAGAAAGAAGAAUCAGAAGGCACAAAGG [salish99-ex1_r3_050] (Eterna round: R96, puzzle: Exclusion 1)	–	–	–	0.0685 µM	0.0374 µM	0.0317 µM
AAGAAGAAACAAGCUUUUUGCACGUCAUAUAGUGACGCAACAUGAGGAUCACCCAUGUAUAGGGUGGGAAAGGAUAG [JR_SV3TOV2_Sub047] (Eterna round: R96, puzzle: Sensor v3, turn-off variant 2)	–	–	–	0.669 µM	0.826 µM	0.352 µM
AGGAGGAGUUCAGGAUAUUCGACAUGAGGAUCACCCAUGUGGGUAAUAUAUAGUAAAGAGAUAGAGAAGAAGGGAAGGGAGGAG [Exclusion NG2] (Eterna round: R96, puzzle: Exclusion NG 2)	–	–	–	0.0425 µM	0.036 µM	0.0235 µM
AGUAGAUCUACGCUUGCGUGGAUCUGCUAUGCAGGUGUUACAUGAGGAUCACCCAUGUCCUCGUUUGCUCGUCUUAU [JL turnoff v2 99.13] (puzzle: Sensor v3, turn-off variant 2)	0.333 µM	0.693 µM	0.448 µM	–	–	–
AGAGGGCGAGGAUAUGCUAAAAGUGGUGCAGUUGUUCGUCGACUUGAGGAUCACCCAAGUAGAAGGCGCACUUC [Sointeer] (Eterna round: R97, puzzle: Exclusion 2)	–	–	–	0.0679 µM	0.0185 µM	–
GGUGGACAUGAGGAUCACCCAUGUGAGGAUAUCGGCUGGUACGUGUUGGCUGGCAUCUCGAGAAGGCACAUAGU [Exclusion 1 V61] (puzzle: Exclusion 1)	–	0.0588 µM	–	–	–	–

Sequence	apparent KD of MS2 coat protein [1]	apparent KD of MS2 coat protein [2]	apparent KD of MS2 coat protein [3]	apparent KD of MS2 coat protein (input ligand: FMN 200 uM)	apparent KD of MS2 coat protein (input ligand: none)	apparent KD of MS2 coat protein [4]
UACUAAAAGGAGGAUAUCGUAUCGGAAACGAUACGAGAAGGCUUAACAUGAGGAUCACCCAUGUUCUUCAAUAA [Mat - Exclusion 6 - Eli Mod - D88] (puzzle: Exclusion 6)	0.0246 µM	0.0173 µM	0.0164 µM	–	–	–
AGCGAGGCAGGAUAUACAUGAGGAUCACCCAUGUACUUGUAUGGCGUGGAACAUCGUGGUAGAAGGGCCGUGCC [EX3 #80] (Eterna round: R97, puzzle: Exclusion 3)	–	–	–	0.0927 µM	0.0689 µM	–
GACAUGAGGAUCACCCAUGUAACCUCAUGUAGGAAGGAGAGUAAGGAUAUAUAUGAAGGAAUGAAGUAGAAGGUGCAUAGAGAG [Default title] (Eterna round: R96, puzzle: Exclusion NG 3)	–	–	–	0.539 µM	0.854 µM	1.35 µM
CUGAGUAGUCAGGAUAUGCUGUACAAAAGUACAGCAGAAGGGACUACAUGAGGAUCACCCAUGUUUACUUCAUG [)mei Ex6 B22] (Eterna round: R97, puzzle: Exclusion 6)	–	–	–	1.26 µM	0.821 µM	–
GAGCUAUGAGGAUAUGCAUAUAUACGGAUUCGUGUGGUACUACAUGAGGAUCACCCAUGUAGAAGGCGUGGCUG [JL-ex2-2.04 mat747 mod] (puzzle: Exclusion 2)	–	0.0162 µM	–	–	–	–
GUGGUACAUGAGGAUCACCCAUGUUAGGAUAUCGCGUGAGGUUUUACUUCCGCACACACGAGAAGGGACGUCUU (puzzle: Exclusion 1)	–	0.0277 µM	–	–	–	–
GUGUAGUAAGGAUAUAGAAAGAGGGAGUAAGAUAGAGAGUUCUAGAAGGUACAUGAGGAUCACCCAUGUUGGAG [JR_Exclu4_Sub082] (puzzle: Exclusion 4)	0.0249 µM	0.0289 µM	0.0278 µM	–	–	–
AGCUCUGCAGGAUAUGCCCGGGAUAACAUGAGGAUCACCCAUGUGACUGAUUGUUAUUCUGCAGAAGGGCAUGGGA [JL-EX5-4.15 ViennaUCT mod] (Eterna round: R97, puzzle: Exclusion 5)	–	–	–	0.409 µM	0.637 µM	–
ACAAGCUUUUAGAUUUUCAACAUGAGGAUCACCCAUGUUCGUCUUGUGCUAGUGCGAGUGCGGUGUACUCGUAUUAG [JL TOV1 3.82 sellena mod] (Eterna round: R97, puzzle: Sensor, turn-off variant 1)	–	–	–	0.0185 µM	0.0184 µM	–
CCAUAAAGGAAGGAUAUGCUAGACGAAAGUCUAGCAGAAGGUCCUACAUGAGGAUCACCCAUGUGGCCUCAUGG [Mat - Exclusion 6 - Eli Mod - D49] (Eterna round: R97, puzzle: Exclusion 6)	–	–	–	0.116 µM	0.198 µM	–
UAAUACAUCUAUGGGAGUAACAUGAGGAUCACCCAUGUAUGUCUUGUUUUUUGUUCGUCAUAGACUUUCUGAUCAGU [JR_SV3TOV1_Sub029] (puzzle: Sensor v3, turn-off variant 1)	0.0479 µM	0.175 µM	0.0522 µM	–	–	–
CAACCUCACGAGGAUAUCAAUGCUAGUUGGCGUUGAGAAGGCGUAACAUGAGGAUCACCCAUGUGGUGGCGUAU [Eternabot (Original) Solution 26] (Eterna round: R97, puzzle: Exclusion 6)	–	–	–	1.02 µM	0.921 µM	–
AAUCAUGAACGAGCUUUUUACAUGAGGAUCACCCAUGUCCUCUGCUCGUCUUGUCUUGGGCUUUUUUUGGGUUCGGG [-22.4, -44.7 kcal, A 16%] (Eterna round: R97, puzzle: Sensor, turn-off variant 1)	–	–	–	0.32 µM	0.355 µM	–
GAUAGAGCAGGAUAUUCAAUAUAUCACAUGAGGAUCACCCAUGUCCAGCGAAAGCUGGAGGGAGAAGGGCUCUAUC [Mat - Exclusion 5 - Eli mod - D99] (puzzle: Exclusion 5)	0.0776 µM	0.366 µM	0.262 µM	–	–	–
AGCUGUGGCCGAGGAUAUCUGAACUUUCAAACCGAAAUAUAAUCGGACAUGAGGAUCACCCAUGUAGAGAAGGCGGUCUCAGCA [Eli eng2 - 061] (Eterna round: R96, puzzle: Exclusion NG 2)	–	–	–	–	–	0.0105 µM
AGAGUGCUGCGAGGAUAUACAUGAGGAUCACCCAUGUAAAUGUGUGAGGCUUUGCCUCACACAAUGUAGAAGGCGCAGUACUCU [Mat - Exclusion NG 2 - Mod of JL - D1] (Eterna round: R96, puzzle: Exclusion NG 2)	–	–	–	0.0178 µM	0.0156 µM	0.00858 µM
UGCGUUUGAGGAUAUACGUAGAAAUAGAUUCAUGUAAAACUACAUGAGGAUCACCCAUGUAGAAGGCAAGCGCU [Mat - Exclusion 2 - JL Mod - D39] (Eterna round: R97, puzzle: Exclusion 2)	–	–	–	0.239 µM	0.0264 µM	–
